Data on four molecules can be found in US20210403555A1 (JAPANESE FOUNDATION FOR CANCER RESEARCH, published 2021).

Test [1] has as its target T1, Recombinant human podoplanin Fc chimera protein (R&D, 3670-PL) (human, UniProt Q86YL7 23-128).
T1 construct: Bought reagent; not shown: Fc part of the bought chimera (detected with anti-human IgG Fc)
T1 sequence (looked up): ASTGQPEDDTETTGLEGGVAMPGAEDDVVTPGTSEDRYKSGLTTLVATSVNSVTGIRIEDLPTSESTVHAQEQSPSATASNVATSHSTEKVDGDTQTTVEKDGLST
The experiment in a line: competition ELISA: inhibition of podoplanin-Fc binding to CLEC-2 on solid phase. An excerpt:
(§1) The culture supernatants collected in Production Examples 1 and 2 were used to measure the inhibitory activity against binding of podoplanin to CLEC-2, following the ELISA protocol described in Patent Document 1.
On the technique in general: In an ELISA, binding on a coated surface is turned into a signal by an enzyme label.

The target of test [2] is T1, Recombinant human podoplanin Fc chimera …. Briefly: competition ELISA: inhibition of podoplanin-Fc binding to CLEC-2 on solid phase; positive control.
Excerpt: as §1
The mouse antibody PG4D2 (PG4D2) was used as a positive control. The mouse antibody PG4D2 is a monoclonal antibody that is obtained from the NITE P-02071 (PG4D2) hybridoma.

The target of test [3] is T2, Peptide of the human podoplanin PLAG4 domain (WT-hPLAG4 (Genscript, 788349-1)) (human, UniProt Q86YL7 76-89, limits assumed).
T2 construct: domain: PLAG4 domain
T2 peptide (looked up): TGIRIEDLPTSEST
The experiment in a line: ELISA, PLAG4 peptide on solid phase, culture supernatant; the reference itself, set as 100%. The text has this: The culture supernatants collected in Production Examples 1 and 2 were used to measure the binding activity to the podoplanin PLAG4 domain, following the ELISA protocol described in Patent Document 1. A peptide of the human podoplanin PLAG4 domain (WT-hPLAG4 (Genscript, 788349-1)) as an antigen peptide was immobilized on a solid phase, and a preadsorbed goat biotin-conjugated anti-human IgG Fc antibody (Abcam, ab98618) and β-Gal-conjugated streptavidin (Roche Diagnostics, 11112481001) were used for a detection purpose.
The avidity (antibody titer) of each antibody was expressed relative to that of the mouse-human chimeric antibody chPG4D2, which is set as 100%.

Residue numbers refer to the chain shown, from its start.

B1: Humanized antibody K4 (antibody, human IgG4 S228P, kappa, V domains shown)
VH: EVQLVESGGGLVQPGGSLRLSCAASGFTFSGFGMLWVRQAPGKGLEWVAYISSVSSRIYYADTVKGRFTISRDNAKNSLYLQMNSLRAEDTAVYYCARESYGPAWFAYWGQGTLVTVSS
VL: DIVMTQSPLSLPVTPGEPASISCRSSQHIVHIDGNTYLEWYLQKPGQSPQLLIYKVSNRFSGVPDRFSGSGSGTDFTLKISRVEAEDVGVYYCFQGSHVPYTFGGGTKVEIKR
One may read the IC50 as the concentration that gives 50% inhibition. As for B1, in test [1], the half-inhibitory concentration (IC50) was found to be 0.36 µg/mL.

B2: Humanized antibody K5 (antibody, human IgG4 S228P, kappa, V domains shown)
VH: B1 VH with A49S, A75S, S78T
VL: B1 VL
As for B2, the IC50 in test [1] came to 0.364 µg/mL.

B3: Mouse antibody PG4D2 (antibody, V domains shown)
VH: DVQLVESGGGLVQPGGSRKLSCAASGFTFSGFGMLWVRQAPEKGLEWVAYISSVSSRIYYADTVKGRFTISRDNPKNTLFLQMTSLRSEDTAMYYCARESYGPAWFAYWGQGTLVTVSA
VL: DVLMTQTPLSLPVSLGDQASISCRSSQHIVHIDGNTYLEWYLQQPGQSPKLLIYKVSNRFSGVPDRFSGSGSGTDFTLRISRVEAEDLGVYYCFQGSHVPYTFGGGTKLEMK
On to B3, for which the concentration for half-maximal inhibition (IC50) in test [2] was 0.371 µg/mL.

B4: Mouse-human chimeric antibody chPG4D2 (antibody, human IgG4 S228P, kappa, V domains shown)
VH: B3 VH
VL: DVLMTQTPLSLPVSLGDQASISCRSSQHIVHIDGNTYLEWYLQQPGQSPKLLIYKVSNRFSGVPDRFSGSGSGTDFTLRISRVEAEDLGVYYCFQGSHVPYTFGGGTKLEMKR
Turning to B4, in test [3], the “Avidity (antibody titer) (%) relative to chPG4D2” value was determined as 100%. Besides, the 50% inhibitory concentration (IC50) in test [1] came to 0.406 µg/mL.
